{"source": "paper PMC6020066", "about": "(Science (New York, N.Y.), 2018)", "binders": {"B1": {"name": "purified FLAG-NUFIP1-HA-ZNHIT3 complex (complex)", "chain 1": "not shown", "chain 2": "MASLKCSTVVCVICLEKPKYRCPACRVPYCSVVCFRKHKEQCNPETRPVEKKIRSALPTKTVKPVENKDDDDSIADFLNSDEEEDRVSLQNLKNLGESATLRSLLLNPHLRQLMVNLDQGEDKAKLMRAYMQEPLFVEFADCCLGIVEPSQNEES"}}, "target": "HA-GST-LC3B (UniProt Q9GZQ8 1-120)", "assay": "pull-down"}
{"binder": "B1", "values": [{"measurement": "binding result", "result": "binds"}]}
